Laboratory results as given in publication doi:10.1101/553800 (bioRxiv, 2019).

Molecular target: the molecule itself
Experiment: crystal structure

B1: hRIO2(1-321) (domain or fragment, human, UniProt Q9BVS4 1-321, looked up)
chain: MGKVNVAKLRYMSRDDFRVLTAVEMGMKNHEIVPGSLIASIASLKHGGCNKVLRELVKHKLIAWERTKTVQGYRLTNAGYDYLALKTLSSRQVVESVGNQMGVGKESDIYIVANEEGQQFALKLHRLGRTSFRNLKNKRDYHKHRHNVSWLYLSRLSAMKEFAYMKALYERKFPVPKPIDYNRHAVVMELINGYPLCQIHHVEDPASVYDEAMELIVKLANHGLIHGDFNEFNLILDESDHITMIDFPQMVSTSHPNAEWYFDRDVKCIKDFFMKRFSYESELFPTFKDIRREDTLDVEVSASGYTKEMQADDELLHPLGP
B1: binds.
